The values that follow come from patent US20170265788A1.

The target of experiment [1] is p53 (Santa Cruz sc-4246) (UniProt P04637). Kind of experiment: LSPR fiber tip probe, antibody on gold nanorod, 1 nM p53 in PBS.
For experiment [2] the target is unchanged. Kind of experiment: LSPR fiber tip probe, shift vs. concentration, Langmuir fit.
For experiment [3] the target is unchanged. Kind of experiment: LSPR fiber tip probe, shift vs. concentration, Langmuir fit (FIG. 3B).
The target is the same in experiment [4]. Kind of experiment: LSPR fiber tip probe, second of three devices, Langmuir fit.
Experiment [5] shares this target. Kind of experiment: UV-Visible spectroscopy of antibody-coated gold nanorods in solution, resonance shift vs. concentration, Langmuir fit.
For experiment [6] the target is unchanged. Kind of experiment: LSPR fiber tip probe, first of three devices, Langmuir fit.
The target is the same in experiment [7]. Kind of experiment: LSPR fiber tip probe, third of three devices, Langmuir fit.
Experiment [8] shares this target. As to the kind of experiment: LSPR fiber tip probe, antibody on gold nanorod, 18.92 nM p53 in PBS.

Chain of UniProt P04637 (P04637 whole entry): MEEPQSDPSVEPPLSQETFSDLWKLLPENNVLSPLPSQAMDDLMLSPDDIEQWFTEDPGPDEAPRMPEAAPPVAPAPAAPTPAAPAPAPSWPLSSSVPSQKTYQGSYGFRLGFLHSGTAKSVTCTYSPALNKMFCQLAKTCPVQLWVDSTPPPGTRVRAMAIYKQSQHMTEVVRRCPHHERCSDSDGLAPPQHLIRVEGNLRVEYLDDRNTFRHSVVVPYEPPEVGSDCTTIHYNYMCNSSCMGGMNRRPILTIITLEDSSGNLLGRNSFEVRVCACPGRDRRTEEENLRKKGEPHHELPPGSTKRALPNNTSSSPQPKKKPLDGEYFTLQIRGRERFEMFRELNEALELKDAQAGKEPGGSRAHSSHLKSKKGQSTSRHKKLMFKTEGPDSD

With p53 antibody (Santa Cruz sc-126), the LSPR shift in the experiment with p53 (Santa Cruz sc-4246) [1] amounted to 0.55 nm; with p53 (Santa Cruz sc-4246) [8], 5.13 nm. Moreover, the Kd – broadly, a measure of binding affinity in units of concentration – was found to be 5.5 nM in the experiment with p53 (Santa Cruz sc-4246) [2]; 5.4 nM with p53 (Santa Cruz sc-4246) [3]; 4.2 nM with p53 (Santa Cruz sc-4246) [4]; 4.3 nM with p53 (Santa Cruz sc-4246) [5]; 5.5 nM in the experiment with p53 (Santa Cruz sc-4246) [6]; 7.1 nM with p53 (Santa Cruz sc-4246) [7].
